Assay results: US12534533B2, “Anti-chemokine like receptor 1 humanized antibodies and their therapeutic applications” (OSE IMMUNOTHERAPEUTICS, priority 2019, dated 2026)
Entries after “also recorded” stand apart in the source; their conditions may differ.

Experiments:
[1] = system: chronic colitis after CD45Rbhigh CD4 T cell transfer in Rag1 knock-out mice; test: CD45Rb high T-cell transfer chronic colitis model; format: in vivo
Protocol: FIG. 19. Effect of an anti-CMKLR1 antibody in the CD45Rb^high T-cell transfer chronic colitis mouse model. A. Weight variation of treated animals was followed up to sixty days. Animals were treated with isotype control hIgG1 (x) or anti-CMKLR1 antibody (n). B. Histological staining of colon tissue in the mice treated with the anti-CMKLR1 (right) compared to control (left). C. Anatomic pathology scores used to calculate the severity of the pathology and the inflammation (inflammation score, vasculutis score, colon thickness and fibrotic colon wall). D. CD3 and Ly6G infiltration.
Method: CD45Rb^high CD4 T cells were isolated from the spleen of naive mice and sorted on an ARIA FACS after a negative selection of the CD4 T cells by magnetic sorting, then injected intraperitoneally at 0.5·10^6 cells in 100 μL of PBS into 6-weeks old female Rag1 knock-out mice. Anti-CMKLR1 antibody (2G1) or an isotype control were administered from day 32 after the CD45Rb^high CD4 T cell transfer for 3 weeks three times a week at 1 mg/kg. The follow-up of weight was evaluated three times a week and the weight variation was determined over the initial weight. * p<0.05, ** p<0.01.

[2] = system: PMN from healthy volunteers; test: Percentage of dead PMN (mortality of neutrophils) on coated antibodies; format: cell-based, human; settings: coated Ab at 10 μg/mL, 24 h; FIG. 26, FIG. 36
Protocol: […] Mortality of PMN was analyzed by incubating PMN with specific markers of the mortality and viability and then counted by picture analysis.
(§1) FIG. 36—Increase of dead PMN neutrophils in vitro with anti-ChemR23 antibodies coated. PMN from healthy volunteers were incubated in culture medium with coated HEF-LDT52S, HEF-LEF and HDLD antibody variants at 10 μg/mL for 24 h and stained either with a dead/viability kit (LIVE/DEAD (Invitrogen)). The percentages of positive cells were obtained by analyzing the pictures with Fiji software. Isotype control was added as control.
PMN from healthy volunteers were incubated in culture medium with coated Ab at 10 μg/mL for 24 h or 5 h and stained either with a dead/viability kit (LIVE/DEAD (Invitrogen)) or a specific marker of reactive oxygen species (ROS) respectively. The percentages of positive cells were obtained by analyzing the pictures with ImageJ software.
as §1, with “PMN” for “FIG. 36—Increase of dead PMN neutrophils in vitro with anti-ChemR23 antibodies coated. PMN”

[3] = system: 4T1 cells; test: orthotopic mammary carcinoma model (4T1); format: in vivo, mice
Protocol: FIG. 8. Effect of an anti-CMKLR1 antibody on a 4T1 breast tumor model. Mice were inoculated with 4T1 cells (0.25 million) in the mammary gland. Then the anti-CMKLR1 antibody (2G1) (A. […]B. ●) or an anti-41BB antibody (3H3) (●) or both antibodies (▴) were injected twice at day 4 and day 7 (10 μg/injection) or a control antibody (IgG1 isotype antibody clone 3G8) (x A. and B.) was injected three time a week for three weeks. A. The tumor area was measured 8 days after tumor injection and then every 2 days. B. Tumor lung metastasis was measured by Bioluminescence imaging (BLI) in animals treated with isotype control and anti-CMKLR1 antibody (n=4).
Mice were anesthetized with 3% of isoflurane. Mice were shaved on the abdomen and 4T1 cells (0.25 millions) were injected in the mammary gland with an insulinic syringe (30 Gauges) in 50 μL of PBS. The anti-CMKLR1 antibody (2G1) or an anti-41BB antibody (3H3) or both antibodies were injected twice at day 4 and day 7 (10 μg/injection); a control antibody was injected three times a week for three weeks intraperitoneally in PBS (100 μg/injection). In a second study to measure the lung metastasis following mammary carcinoma development, animals were treated with anti-CMKLR1 antibody at 0.8 mg/kg or control antibody (100 μg/injection) three times a week for three weeks.

[4] = system: peritonitis induced by Zymosan A; test: peritonitis model (Zymosan A); format: in vivo, mice; settings: vs isotype control
Protocol: FIG. 7. Effect of an anti-CMKLR1 antibody on a mice peritonitis model. Preventive injection of anti-CMKLR1 was performed before Zymosan A injection (1 mg per mouse in 1 mL): RvE1 (1 μg per mouse) (●), 2G1 antibody (10 μg per mouse) (□) or isotype control antibody (x). A. PMN numbered during the first 50 hours after Zymosan A injection. B. Macrophages numbered during the first 50 hours after Zymosan A injection. C. Resolution index.
Common peritonitis is induced by intraperitoneal injection of Zymosan A® (1 mg per mouse in 1 mL). Preventive injection of anti-CMKLR1 was performed 5 minutes before Zymosan A injection: RvE1 (1 μg per mouse), 2G1 antibody (10 μg per mouse). Murine peritoneal polymorphonuclear neutrophil (PMN) and macrophages were collected at 2-4-8-16-24 and 48 h after Zymosan A injection and numbered by flow cytometry analysis to determinate the resolution index (Bannenberg et al., 2005).

[5] = system: Caspase-3 in PMN from healthy volunteers; test: Caspase-3 expression in PMN by Western Blot; format: cell-based, human; settings: coated Ab at 10 μg/mL; 4 h, 6 h, 11 h; FIG. 26B
Protocol: Neutrophils were isolated from blood of healthy volunteers and cultured for 24 h (Mortality analysis), or 4 h, 6 h, 11 h (Caspase-3 assay), or 5 h (ROS assay) on coated Iso ctrl (cross), chimeric anti-ChemR23 2G1 (square) or different humanized versions of the 2G1 (diamonds). Mortality of PMN was analyzed by incubating PMN with specific markers of the mortality and viability and then counted by picture analysis.
PMN from healthy volunteers were incubated in culture medium with coated Ab at 10 μg/mL for different times and collected for Caspase-3 staining analyzed by Western Blot. The intensity of Capase-3 expression was calculated on WB.

[6] = system: psoriasis induced by Aldara cream; format: in vivo, mice
Protocol: FIG. 6. Effect of anti-CMKLR1 agonist on an autoimmune disease such as mice psoriasis model. Aldara treated mice for 4 to 6 consecutive days were injected intra-peritoneally with: 2G1 (●) or isotype control antibody (x). A. thicknesses and B weight.
Aldara® cream which is known to induce psoriasis in mice was used on male C57Bl/6 mice (8-10-week old). Mice received a daily topical dose of Aldara. Treatments (anti-CMKLR1 agonist or control compound) were injected intra-peritoneally: […]

B1: 2G1: parental chimeric anti-CMKLR1 antibody: heavy chain variable domain SEQ ID No. 37, light chain variable domain SEQ ID No. 49 (antibody, V domains shown)
VH: EVQLVASGGGLVQPGGSLKLSCAASGFTFSSYGMSWVRQTPDRRLELVATINRYGGSTYYPDSVKGRFTISRDNAKNTLYLQMSSLKSEDTAMYYCPRLIYYGNEGDSWGQGTTLTVSS
VL: QIVLTQSPAIMSASPGEKVTMTCSASSSVSFMHWYQQKSGTSPKRWIYDTTKLTSGVPARFSGSGSGTFYSLTISSMEAEDAATYYCQQWNSKPPLTFGPGTKLELKR
Weight variation ([1]; 1 mg/kg three times a week for 3 weeks from day 32, vs isotype control, FIG. 19A): continue to gain weight
anatomic pathology scores, comprising inflammation scores ([1]; FIG. 19C): lower
colon tissue thickness ([1]; histology, FIG. 19B): decrease of tissue thickness
fibrotic tissue ([1]; histology, FIG. 19B): decrease of fibrotic tissue
mortality of PMN (percentage of dead PMN) [2]: increase the mortality of PMN; also recorded: accelerate the death of PMN
tumor growth (tumor area) ([3]; 10 μg/injection at day 4 and day 7, vs isotype control, FIG. 8A): did not show any improvement
lung metastasis by bioluminescence imaging ([3]; 0.8 mg/kg three times a week for three weeks, vs control antibody, FIG. 8B): reduces the lung metastasis
lymph node metastasis ([3]; two animals in the control have metastasis, data not shown): no animals treated with the anti-CMKLR1 compound has metastasis
PMNs number ([4]; first 50 hours after Zymosan A, FIG. 7A): slightly less
Macrophages number ([4]; first 50 hours after Zymosan A, FIG. 7B): slightly less
resolution index ([4]; FIG. 7C): better resolution index
caspase-3 cleavage [5]: increases caspase-3 cleavage
thickness of the skin ([6]; after Aldara administration, e.g. day 15, FIG. 6A): reduces the thickness of the skin
weight of the animals ([6]; mouse, in vivo): not impacted
